# Measurements reported in the DeepSol protein solubility set.
# Test: soluble on expression in E. coli; label from the status in PepcDB or PDB records
row,Sequence,soluble on expression in E. coli
1,MARIRVVQGDITEFQGDAIVNAANNYLKLGAGVAGAILRKGGPSIQEECDRIGKIRVGEAAVTGAGNLPVRYVIHAAVLGDEPASLETVRKATKSALEKAVELGLKTVAFPLLGTGVGGLPVEAVARVMLEEIKKAPDTLEVTLYGYREEDAEAIRRAL,soluble
2,MGSDKIHHHHHHMPRTIRIYRPTELPADEALPVIYMHDGQNVFSGETASFGKGWEVHHALHTVQLHAMIVAIDSPDDGMDRYDEYAPWTDEALLMRTAYPSHRKTIGGNGKQYMHWIVHELKPYIDAQYATIPTDTTMIGSSMGGVISLYGLFAYPEVFTRVAALSTAGWANFSSLLEFIERSPGLSEDHRCYMDVGTKEVSGPMTENDYLHTNEVLAKAVQKKVQQAAYEIIPGAVHHETEWAKRMPDILRFLFSS,not soluble
3,METKILYQKVSADLKRRILDGDYEVGGLIPSEGELERYYQVSKITIRKAVEVLVSEGYLEKKSGIGTRVISNDLFNKLTQTQSFTATVGQQGKLTKELIKIERVPAVPALLPSESQGTMLRIKRRYLLDGKPFAVVDHYLPNTLVPTKLTALRHRSLYKILQENGQTITHFQDKFSAVTLADSERALLESQTPLAIRRERKGYDGHQRLVEFSIATYQTDVVPYQINYDVL,not soluble
4,MGSDKIHHHHHHMDVLKEVLSLDQDKFDQLKETSRDKTNETDDPFENYLKDCKFKAPSNKDQSPFAKLKSLQETHSNNEAAINIIIPQLIDYLTEFTNRLSNYTQDLDFIKKKSNELQSLLEYNSTKLAHISPMVNDLMIPPELIDDIIKGKINESWQDNITFIADKEEIYNKYRSNNLDQDNKDAENSAMLAPKDFDKLCQLLDILKNVILERSKRLIISKIKTLRSHNPVPSQRIQNKLLKVQKIFPFIRDNNLSLALELRQAYCYTMKWYYREYFSRYIRSLTILQFQQIDSQFALGNGLSTTSVSGFNNSPSLFFSNYLTTSASNAFYNKLPVTDEKIDKYFQIKKRLNILTQEDNTVMVSQIAENNTTKNYIEIGFKNLNLAILDNCTVEYHFLKDFFAMNGDNFEEINGLLEQIFQPTFDEATTYTQQLIQYNYDIFGVLISIRVANQLQFESERRGIPSMFDSFLNGQLIQLWPRFQQLVDFQCESLRKAAITTNVAKYAGNSSTSNSSPLTSPHELTVQFGKFLSSFLTLAITHKQSIDERSEPLYNSIIRLRNDFETVMTKCSKKTKSPERFLATNYMYLYNNLQQLHLHLNINDSDAQNYNFDSAENVGTKVANDDDNDSSVPLIIRETENHFKTLVEAFTRN,not soluble
5,MSGAAKRVATSSVNWSKLAERLVPEHAAELTRVKGVSGTFQSAVSQLPADLPKIDFAALKKALPAHSAVLDSLQKQYESVKIPYGEVPAEYLKEVDQWVDYNNARIKLHEVKVADGLQEAKKVEEKWAKAPPVEHFDRQHFVEYFPAHFYDLRYQNRIPDPCNIGLNETPEIENRFKDYKVLRRADKVDDH,not soluble
6,MLSERMLKALNDQLNRELYSAYLYFAMAAYFEDLGLEGFANWMKAQAEEEIGHALRFYNYIYDRNGRVELDEIPKPPKEWESPLKAFEAAYEHEKFISKSIYELAALAEEEKDYSTRAFLEWFINEQVEEEASVKKILDKLKFAKDSPQILFMLDKELSARAPKLPGLLMQGGE,soluble
7,GQEVTVSCAEGDTGFIYAGLLDVQITDVALDNMPKAPVKVMMNVGNPELAFSFANLPSEGIGLARMEFIINRQIGIHPKALLEFDKQDDELKAEITRRIAGYASPVDFYVDKIAEGVATLAASVYPRKTIVRMSDFKSNEYANL,not soluble
